PMC10883268

Key:
[1] = target: SecY_(A103C-V353C)EG (E. coli) (UniProt P0AGA2)
[2] = target: SecY_(A103C-V353C)EG (E. coli) (UniProt P0AGA2); remark: listed apart in the source

SecA, sequence (P10408 whole entry): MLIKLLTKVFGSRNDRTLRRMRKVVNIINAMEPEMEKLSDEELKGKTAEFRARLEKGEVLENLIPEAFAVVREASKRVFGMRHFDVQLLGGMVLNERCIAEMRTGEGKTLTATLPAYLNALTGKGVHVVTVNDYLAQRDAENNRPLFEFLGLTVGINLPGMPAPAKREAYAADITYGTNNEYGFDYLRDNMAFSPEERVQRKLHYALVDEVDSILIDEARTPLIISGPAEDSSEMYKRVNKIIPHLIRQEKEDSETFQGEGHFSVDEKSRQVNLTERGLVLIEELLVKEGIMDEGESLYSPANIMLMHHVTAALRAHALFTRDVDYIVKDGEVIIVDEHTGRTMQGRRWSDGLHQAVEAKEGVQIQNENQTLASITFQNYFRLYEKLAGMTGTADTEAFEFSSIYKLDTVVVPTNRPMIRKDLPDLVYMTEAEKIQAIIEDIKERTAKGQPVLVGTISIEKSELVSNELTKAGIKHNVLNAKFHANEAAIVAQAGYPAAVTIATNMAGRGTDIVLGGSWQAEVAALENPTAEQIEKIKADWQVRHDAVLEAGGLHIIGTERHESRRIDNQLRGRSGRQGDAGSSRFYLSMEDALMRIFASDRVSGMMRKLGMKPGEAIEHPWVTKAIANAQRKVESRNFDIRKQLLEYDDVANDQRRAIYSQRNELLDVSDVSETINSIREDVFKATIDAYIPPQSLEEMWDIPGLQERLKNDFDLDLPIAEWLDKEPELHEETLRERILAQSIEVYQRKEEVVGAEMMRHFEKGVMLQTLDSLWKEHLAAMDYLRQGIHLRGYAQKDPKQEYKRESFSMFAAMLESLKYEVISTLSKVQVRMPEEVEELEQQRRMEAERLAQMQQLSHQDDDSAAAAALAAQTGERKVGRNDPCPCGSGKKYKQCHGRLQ

smFRET between dyes on SecY C103 and C353 in proteoliposomes: percent of time in the closed state with SecA, no nucleotide (~81% for SecYEG alone) [1]: > 91%
smFRET between dyes on SecY C103 and C353 in proteoliposomes: balance of open and closed states with 1 µM SecA, no nucleotide, no SS, against SecYEG alone [2]: 2 fold
Substance: SecA (from UniProt P10408 1-901) (enzyme)
